According to EP4574846A1:

Tests used:
[1] = biological target: human VEGFA165 (human) (UniProt P15692); assay: cell-based or functional assay
[2] = biological target: human VEGFA165 (human) (UniProt P15692); assay: SPR Biacore 8K, VEGFA165 (GenScript) on CM5 at low immobilization, protein as analyte, 1:1 model

Sequence of human VEGFA165 (human) (P15692 other isoform, or with tags, fused parts or gaps limits assumed): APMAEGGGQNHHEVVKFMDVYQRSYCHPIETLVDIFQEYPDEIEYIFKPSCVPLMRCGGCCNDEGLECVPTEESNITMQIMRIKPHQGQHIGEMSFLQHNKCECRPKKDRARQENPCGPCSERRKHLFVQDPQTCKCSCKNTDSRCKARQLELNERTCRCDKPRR

HUVEC proliferation inhibition Maximum inhibition rate (%) [1]	HUVEC proliferation inhibition IC50 [1]	Kd [2]	koff [2]	kon [2]	Substance
0%					human IgG1 antibody (hIgG1 control) that binds to HIV
60%	810 pM	58.4 pM	9.57e-05 s⁻¹	1.64e+06 M⁻¹ s⁻¹	Aflibercept (Fc fusion)
